# Measured values: the supplement of paper PMC7877785
# ± gives the uncertainty stated by the source.
# Test: self-splicing fitness, log relative to wild type (ln ratio); higher = more splicing; Tetrahymena group I intron in knt gene, E. coli kanamycin selection, DiMSum; sequences stand for … in CUCUCU…GGAGGGAAAAGUUAUCAGGCAUGCACCUGGUAGCUAGUCUUUAAACCAAUAGAUUGCAUCGGUUUAAAAGGCAAGACCGUCAAAUUGCGGGAAAGGGGUCAACAGCCGUUCAGUACCAAGUCUCAGGGGAAACUUUGAGAUGGCCUUGCAAAGGGUAUGGUAAUAAGCUGACGGACAUGGUCCUAACCACGCAGCCAAGUCCUAAGUCAACAGAUCUUCUGUUGAUAUGGAUGCAGUUCACAGACUAAAUGUCGGUCGGGGAAGAUGUAUUCUUCUCAUAAGAUAUAGUCGGACCUCUCCUUAAUGGGAGCUAGCGGAUGAAGUGAUGCAACACUGGAGCCGCUGGGAACUAAUUUGUAUGCGAAAGUAUAUUGAUUAGUUUUGGAGUACUCGUGGUCG
# Procedure, shortened: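 DiMSum derived fitness as the error-weighted combination of fold changes across replicates, kanamycin versus no kanamycin, normalised to wild type. E. coli BL21(DE3) held the library, which randomised all eight P1ex-region intron nucleotides within the knt kanamycin-resistance gene on pET-22b(+). Six replicate transformations grew overnight at 37°C or 30°C on LB agar with or without 25 μg/mL kanamycin, also containing 100 μg/mL carbenicillin, 50 μM IPTG and 0.2% rhamnose, and pooled colonies were amplicon-sequenced on an Illumina HiSeq 2500.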
Sequence,self-splicing fitness (ln) (30 °C),self-splicing fitness (ln) (37 °C)
AGUAAGCAAUAUUACGAUGG,-3.99 ± 0.23,-1.56 ± 0.26
AGUAAGCAAUAUUACGGAUG,-3.1 ± 0.25,-2.2 ± 0.26
AGUAAGCAAUAUUACGGCAC,-2.04 ± 0.27,-0.545 ± 0.2
AGUAAGCAAUAUUACGGCUU,-0.592 ± 0.086,-0.0743 ± 0.11
AGUAAGCAAUAUUACGGGAA,-2.13 ± 0.16,-2.12 ± 0.19
AGUAAGCAAUAUUACGGGAG,-3.4 ± 0.2,-2.43 ± 0.2
AGUAAGCAAUAUUACGGGUU,-2.54 ± 0.18,-2.68 ± 0.2
AGUAAGCAAUAUUACGGUCA,-0.817 ± 0.074,0.0737 ± 0.081
AGUAAGCAAUAUUACGGUCC,-0.766 ± 0.061,-0.91 ± 0.08
AGUAAGCAAUAUUACGGUCU,-0.432 ± 0.093,-0.488 ± 0.11
AGUAAGCAAUAUUACGUAUG,-2.94 ± 0.29,-2.15 ± 0.24
AGUAAGCAAUAUUACGUUUA,-2.84 ± 0.22,-1.56 ± 0.18
AGUAAGCAAUAUUACGUUUG,-4.38 ± 0.29,-2.13 ± 0.21
AGUCAGCAAUAUUACGACAA,-0.509 ± 0.098,0.177 ± 0.13
AGUCAGCAAUAUUACGACAC,-0.0897 ± 0.065,-0.358 ± 0.084
AGUCAGCAAUAUUACGCCAU,-2.86 ± 0.25,-1.1 ± 0.21
AGUCAGCAAUAUUACGCCUU,-0.221 ± 0.11,0.301 ± 0.13
AGUCAGCAAUAUUACGCGGA,-3.11 ± 0.26,-1.79 ± 0.18
AGUCAGCAAUAUUACGCUUU,-0.879 ± 0.063,0.0148 ± 0.087
AGUCAGCAAUAUUACGGCCU,0.247 ± 0.1,0.507 ± 0.13
AGUCAGCAAUAUUACGGUCU,-0.851 ± 0.06,-0.146 ± 0.068

Sequence,self-splicing fitness (ln) (30 °C),self-splicing fitness (ln) (37 °C)
AGUCAGCAAUAUUACGUAGA,-2.08 ± 0.095,-0.757 ± 0.098
AGUCAGCAAUAUUACGUAGG,-3.1 ± 0.12,-1.64 ± 0.14
AGUCAGCAAUAUUACGUAGU,-1.21 ± 0.077,-0.268 ± 0.12
AGUCAGCAAUAUUACGUAUA,-2.69 ± 0.12,-1.33 ± 0.1
AGUCAGCAAUAUUACGUCUG,-2.2 ± 0.13,-0.783 ± 0.12
AGUCAGCAAUAUUACGUUGC,,-2.83 ± 0.3
AGUGAGCAAUAUUACGAAAC,-2.97 ± 0.38,-1.2 ± 0.33
AGUGAGCAAUAUUACGACAA,-2.34 ± 0.23,-0.743 ± 0.18
AGUGAGCAAUAUUACGAGUA,-3.6 ± 0.44,-2.18 ± 0.32
AGUGAGCAAUAUUACGCCGU,-2.39 ± 0.38,
AGUGAGCAAUAUUACGCCUC,-1.98 ± 0.24,
AGUGAGCAAUAUUACGCGCG,-1.28 ± 0.16,-1.83 ± 0.22
AGUGAGCAAUAUUACGCGUC,-1.51 ± 0.3,-2.62 ± 0.45
AGUGAGCAAUAUUACGCGUG,-4.06 ± 0.28,-2.34 ± 0.15
AGUGAGCAAUAUUACGCUUA,,-1.98 ± 0.38
AGUGAGCAAUAUUACGGAGU,-2.86 ± 0.3,-3.09 ± 0.35
AGUGAGCAAUAUUACGGCAU,-1.36 ± 0.12,-0.254 ± 0.13
AGUGAGCAAUAUUACGGCGA,-1.18 ± 0.14,-2 ± 0.21
AGUGAGCAAUAUUACGGGGC,,-2.75 ± 0.29
AGUGAGCAAUAUUACGGUAG,-3.02 ± 0.4,
AGUGAGCAAUAUUACGGUUG,-3.38 ± 0.27,-1.92 ± 0.24

Sequence,self-splicing fitness (ln) (30 °C),self-splicing fitness (ln) (37 °C)
AGUGAGCAAUAUUACGUCGA,-3.92 ± 0.24,-2 ± 0.16
AGUGAGCAAUAUUACGUUAC,-3.72 ± 0.47,
AGUGAGCAAUAUUACGUUGG,-4.42 ± 0.36,-1.98 ± 0.26
AGUGAGCAAUAUUACGUUUC,-3.41 ± 0.23,-3.56 ± 0.32
AGUUAGCAAUAUUACGAAGG,-4.03 ± 0.22,-3.4 ± 0.28
AGUUAGCAAUAUUACGACUA,-0.154 ± 0.18,0.0802 ± 0.17
AGUUAGCAAUAUUACGAUCC,0.593 ± 0.14,-0.367 ± 0.15
AGUUAGCAAUAUUACGCACA,0.242 ± 0.2,0.395 ± 0.28
AGUUAGCAAUAUUACGCAUU,-3.25 ± 0.25,-0.806 ± 0.17
AGUUAGCAAUAUUACGCGAA,-2.29 ± 0.15,-1.1 ± 0.13
AGUUAGCAAUAUUACGCUAU,-2.29 ± 0.17,-1.21 ± 0.14
AGUUAGCAAUAUUACGGGAA,-2.22 ± 0.19,-1.05 ± 0.16
AGUUAGCAAUAUUACGGGUC,-1.99 ± 0.33,
AGUUAGCAAUAUUACGGUCA,-1.08 ± 0.077,-0.46 ± 0.085
AGUUAGCAAUAUUACGUAGG,-4.63 ± 0.32,
AGUUAGCAAUAUUACGUAUC,-3.63 ± 0.2,-2.25 ± 0.18
AGUUAGCAAUAUUACGUCGA,-1.37 ± 0.12,-1.02 ± 0.13
AGUUAGCAAUAUUACGUCGC,-2.96 ± 0.39,-0.924 ± 0.18
AGUUAGCAAUAUUACGUGGU,-3.34 ± 0.15,-3.35 ± 0.23
AGUUAGCAAUAUUACGUUCG,-1.26 ± 0.082,-0.903 ± 0.1
AGUUAGCAAUAUUACGUUUC,-3.37 ± 0.34,
